Experimental findings from US20260347399A1, “BRAIN PENETRATING PEPTIDES AND METHODS OF USE” (priority 2022, published 2026) are described below.

Ends that are not written are not given here.

One data set relates to mouse brain. As to the kind of experiment: In vivo play-off screen with 4 CX4CYX peptides. The following applies: compared to CAGALCY.
A further data set has as its system brain parenchyma. In words: Peptide-phage homing in vivo vs ex vivo. Details: species or system mouse.
The subject of a further data set is WT GBM cells. In words: Proximity labelling with peptide-HRP complex and mass spectrometry. It counts as cell-based, mouse. The settings on record: WT GBM and Neuro2A proximity labelling, mass spectrometry. As for the experimental part:
To assess the efficiency and specificity of proximity labelling, WT GBM cells were cultured in 24-well plates on polylysine coated glass coverslips until 80-90% confluency. Cerepep and horseradish peroxidase complex (CP-HRP) was prepared by conjugating biotinylated Cerepep to streptavidin-HRP. Control biotin-HRP complex was prepared by conjugating biotin to streptavidin-HRP. 4 μM CP-HRP or biot-HRP in DPBS was added to the cells and incubated at 37 °C for 1 h. The cells were washed with DPBS. 500 μM biotin-phenol (Iris Biotech #41994-02-9) in DPBS was added to the cells and incubated at 37 °C for 30 min. To start the reaction, H2O2 with the final concentration of 1 mM was added to the cells and incubated for 2 min at RT. The reaction was stopped by washing with 100 U/ml catalase in DPBS. Cells were fixed in 4% PFA and biotinylated proteins were detected with Streptavidin-Dylight 550 conjugate (1:500 in DPBS). Nuclei were stained with DAPI and the biotinylation of cells was analyzed with confocal microscopy.
To biotinylate the receptor of Cerepep peptide to be detected with mass spectrometry, the proximity labelling was performed on WT GBM and Neuro2A cells in suspension following the same protocol as with attached cells. […]
Biotin was detected with Streptavidin DyLight550. The WT GBM cells were analyzed with confocal microscopy. […]

For the substance CVGTNCY, the “representation in the brain” value in the data set with mouse brain is given as “highest representation in the brain”. Moreover, the “brain homing in vivo after iv injection” value with brain parenchyma is on record as “homes to the brain parenchyma”.

In the case of “SRRVISRAKLAAAL [Cerepep, SRRVISRAKLAAAL]”, the “most probable receptor candidate” value in the data set with WT GBM cells is recorded as “LRP1 was considered the most probable candidate”.
